Data as given in US20050282743A1, “Molecular interactions in cells” (Arbor Vita Corporation, priority 2001, published 2005).
Ends that are not written are not given here. * marks the point of attachment. Biotin = O=C1N[C@H]2[C@H](CS[C@H]2CCCCC(=O)*)N1

Legend:
Test in all cases: G' assay (10 uM PL peptide), results of TABLE 7 and TABLE 12
Assay type in all cases: binding
[1] = target: T1, PDZ protein (GST-PDZ fusion) (Homo sapiens, UniProt Q14168); details: PDZ MPP2, PDZ Domain 1
T1 construct: made in house; host or cells: E. coli (DH5alpha, BL21 or JM109)
T1 sequence (Q14168 1-576): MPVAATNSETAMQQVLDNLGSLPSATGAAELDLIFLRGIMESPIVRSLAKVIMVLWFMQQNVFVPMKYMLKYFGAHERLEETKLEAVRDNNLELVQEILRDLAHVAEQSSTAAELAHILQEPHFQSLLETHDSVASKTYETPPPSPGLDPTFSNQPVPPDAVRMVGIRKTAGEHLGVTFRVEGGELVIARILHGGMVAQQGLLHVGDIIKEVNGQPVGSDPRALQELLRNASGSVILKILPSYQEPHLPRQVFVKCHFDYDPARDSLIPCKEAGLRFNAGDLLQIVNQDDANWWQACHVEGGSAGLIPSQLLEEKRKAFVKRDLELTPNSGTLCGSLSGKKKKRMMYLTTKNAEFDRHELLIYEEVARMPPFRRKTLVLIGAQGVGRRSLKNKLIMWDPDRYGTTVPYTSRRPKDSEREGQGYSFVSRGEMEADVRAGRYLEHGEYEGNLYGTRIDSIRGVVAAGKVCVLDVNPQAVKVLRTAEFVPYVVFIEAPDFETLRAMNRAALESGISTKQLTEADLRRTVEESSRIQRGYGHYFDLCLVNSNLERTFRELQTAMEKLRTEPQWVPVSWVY
Outline: (§1)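 Biotin-PL peptide (N-term label), 10 uM vs GST-PDZ; protein 5 ug/ml by default. A450 nm binned: 1 = 0-1, 2 = 1-2, 3 = 2-3, 4 = 3-4, 5 = >4 on >2 repeats, 0 = no binding.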

[2] = target: T2, PDZ protein (GST-PDZ fusion) (Homo sapiens, UniProt Q9BXL6); details: PDZ CARD14, PDZ Domain 1
T2 construct: made in house; host or cells: E. coli (DH5alpha, BL21 or JM109)
T2 sequence (Q9BXL6 1-1004): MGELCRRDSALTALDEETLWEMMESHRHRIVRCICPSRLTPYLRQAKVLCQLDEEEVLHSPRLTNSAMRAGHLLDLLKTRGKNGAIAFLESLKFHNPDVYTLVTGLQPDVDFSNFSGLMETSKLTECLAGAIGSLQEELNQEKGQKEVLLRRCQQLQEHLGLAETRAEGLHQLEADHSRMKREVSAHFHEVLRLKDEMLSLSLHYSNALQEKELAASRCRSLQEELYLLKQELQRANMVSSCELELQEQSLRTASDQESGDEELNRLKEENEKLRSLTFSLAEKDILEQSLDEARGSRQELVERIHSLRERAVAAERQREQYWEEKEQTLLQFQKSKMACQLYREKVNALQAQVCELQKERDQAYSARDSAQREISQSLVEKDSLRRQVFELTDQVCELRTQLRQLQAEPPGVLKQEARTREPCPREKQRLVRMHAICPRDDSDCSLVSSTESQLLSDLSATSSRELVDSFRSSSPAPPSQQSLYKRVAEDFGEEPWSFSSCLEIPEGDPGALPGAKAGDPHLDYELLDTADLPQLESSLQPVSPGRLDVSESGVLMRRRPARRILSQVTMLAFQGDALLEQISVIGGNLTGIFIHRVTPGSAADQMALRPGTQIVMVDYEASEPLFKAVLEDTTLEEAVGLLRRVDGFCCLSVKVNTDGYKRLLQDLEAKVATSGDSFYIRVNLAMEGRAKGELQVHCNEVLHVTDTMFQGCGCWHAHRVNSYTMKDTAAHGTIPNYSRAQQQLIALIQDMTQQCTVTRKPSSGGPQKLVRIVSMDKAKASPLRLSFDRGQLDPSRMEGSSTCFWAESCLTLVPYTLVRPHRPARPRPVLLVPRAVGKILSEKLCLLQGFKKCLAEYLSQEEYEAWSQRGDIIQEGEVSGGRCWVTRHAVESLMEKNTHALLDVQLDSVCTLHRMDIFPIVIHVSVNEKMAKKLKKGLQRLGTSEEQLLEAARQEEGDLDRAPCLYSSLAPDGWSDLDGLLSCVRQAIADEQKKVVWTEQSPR
Outline: as §1

[3] = test system: PDZ protein (GST-PDZ fusion); details: PDZ HEMBA 1003117, PDZ Domain 1
Outline: as §1

Classification [1]: 2 (A450 nm 1-2)
Classification [2]: 2 (A450 nm 1-2)
Substance: 5-HT 3A (serotonin receptor 3A) (Biotin-LAVLAYSITLVMLWSIWQYA)
Classification [3]: 2 (A450 nm 1-2)
